Several values for one entry are separate records, joined by “and”; a condition that tells them apart may be missing. Equal entries are not always repeated. Ends that are not written are not given here. * marks the point of attachment. Dansyl = CN(C)c1cccc2c(S(=O)(=O)*)cccc12
Assays:
C2BBe1 fixed cells [1] = test: competition ELISA on fixed cells; vs GST-P31
C2BBe1 fixed cells [2] = test: competition ELISA on fixed cells; vs GST-HAX42
C2BBe1 fixed cells [3] = test: competition ELISA on fixed cells; vs GST-PAX2
[4] = target: C2BBe1 fixed cells (GST-P31 competition); test: competition ELISA on fixed cells; vs GST-P31

Binder	IC50 (C2BBe1 fixed cells [1]) [nM]	IC50 (C2BBe1 fixed cells [2]) [nM]	IC50 (C2BBe1 fixed cells [3])	IC50 [4] [nM]
K(Dansyl)SARDSGPAEDGSRAVRLNGVENANTRKSSRSNPRGRRHPGG-NH2 [ELAN024(P31)]	500	–	–	–
K(Dansyl)STPPSREAYSRPYSVDSDSDTNAKHSSHNRRLRTRSRPNG-NH2 [ELAN018(PAX2)]	–	230	600 nM and 1000 nM	–

Next, values leading:

IC50 (C2BBe1 fixed cells [1]) [nM]	IC50 (C2BBe1 fixed cells [2]) [nM]	IC50 (C2BBe1 fixed cells [3])	IC50 [4] [nM]	Binder
1700	–	700 nM	–	K(Dansyl)SDHALGTNLRSDNAKEPGDYNCCGNGNSTGRKVFNRRRPSAIPT-NH2 (cysteine pairing not given here) [Z21(HAX42)]
–	–	–	940	K(Dansyl)SARDSGPAEDGSRAVRLNGVENANTRKSSRSNPRGRRHPGG-NH2 [z024(P31)]
–	5500	–	–	K(Dansyl)SDHALGTNLRSDNAKEPGDYNCCGNGNSTGRKVFNRRRPSAIPT-NH2 (cysteine pairing not given here) [ELAN021(HAX42)]

From patent US6703362 (dated 2004)
